Patent publication US20170081379A1
Values belong to the binder of their own block, whether it stands above or below them. Bridge positions count the residues as written; N and C are the ends. Square brackets hold non-standard residues; d marks the D form. Ends that are not written are not given here. R8 = C=CCCCCCC[C@@](C)(N)C(=O)O; S5 = C=CCCC[C@](C)(N)C(=O)O

Experiments:
[1] = target: recombinant HDM2 17-125 (human) (UniProt Q00987); assay: fluorescence polarization, FITC-peptide with titrated HDM2 17-125; the concentration is that of hDM2
[2] = target: recombinant HDM2 17-125 (human) (UniProt Q00987); assay: fluorescence polarization, FITC-labeled peptide with HDM2 17-125

Chain of recombinant HDM2 17-125 (human) (Q00987 17-125 limits assumed): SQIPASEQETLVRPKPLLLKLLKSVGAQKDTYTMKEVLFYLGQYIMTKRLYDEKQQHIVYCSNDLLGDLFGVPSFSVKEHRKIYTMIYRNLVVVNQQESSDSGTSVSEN

EC50 (read off the curve) [1]: 800 pM | Kd [2]: 0.8 nM
B1: FITC-SAH-p53-5 (peptide, from a related filing)
peptide: LSQETF[R8]NLWKLL[S5]QN-NH2
modifications: staple 7-14; not fully specified (N-terminus)

Kd [2]: 0.92 nM
B2: FITC-SAH-p53-4 (peptide, from a related filing)
peptide: LSQETF[R8]DLWKLL[S5]EN-NH2
modifications: staple 7-14; not fully specified (N-terminus)

Kd [2]: 50 nM
B3: FITC-SAH-p53-7 (peptide, from a related filing)
peptide: QSQQTF[R8]NLWKLL[S5]QN-NH2
modifications: staple 7-14; not fully specified (N-terminus)

Kd [2]: 56 nM
B4: FITC-SAH-p53-6 (peptide, from a related filing)
peptide: LSQQTF[R8]NLWRLL[S5]QN-NH2
modifications: staple 7-14; not fully specified (N-terminus)
